Patent publication US20230212587A1, “Mutant Hydroxyphenylpyruvate Dioxygenase Polypeptide, Encoding Gene Thereof and Use Therefor” (Beijing Dabeinong Biotechnology Co., Ltd., priority 2019, published 2023)

Test system: Arabidopsis thaliana T1 plants
Assay: Topramezone tolerance of transgenic Arabidopsis thaliana T1 plants (pesticide damage grade by bleached leaf area, score, resistance evaluation)
Type: in vivo
Conditions: HPPDs from different species, 7 DAT; for Classification and statistics of pesticide damage grade Grade 0 / Classification and statistics of pesticide damage grade Grade 1 / Classification and statistics of pesticide damage grade Grade 2 / Classification and statistics of pesticide damage grade Grade 3: number of plants (of 16) in this grade; for Scores: score for pesticide damage 0-100
In short: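 Herbicide tolerance was judged per plant on a bleaching scale (grade 0 no bleaching to grade 3 fully bleached) 7 DAT. Topramezone doses were 0, 25, 50 and 100 g ai/ha on 18-day-old T1 and wild-type plants.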

Row | Molecule | Classification and statistics of pesticide damage grade Grade 0 (topramezone 25 g ai/ha (1x)) | Classification and statistics of pesticide damage grade Grade 1 (topramezone 25 g ai/ha (1x)) | Classification and statistics of pesticide damage grade Grade 2 (topramezone 25 g ai/ha (1x)) | Classification and statistics of pesticide damage grade Grade 3 (topramezone 25 g ai/ha (1x)) | Classification and statistics of pesticide damage grade Grade 0 (topramezone 100 g ai/ha (4x)) | Classification and statistics of pesticide damage grade Grade 1 (topramezone 100 g ai/ha (4x)) | Classification and statistics of pesticide damage grade Grade 2 (topramezone 100 g ai/ha (4x)) | Classification and statistics of pesticide damage grade Grade 3 (topramezone 100 g ai/ha (4x)) | Scores (topramezone 25 g ai/ha (1x)) | Scores (topramezone 100 g ai/ha (4x)) | Resistance evaluation (topramezone 25 g ai/ha (1x)) | Resistance evaluation (topramezone 100 g ai/ha (4x))
1 | SbHPPD-02: native Sorghum bicolor HPPD, SEQ ID NO: 63 (protein, Sorghum bicolor; SbHPPD Amino Acid Sequence) MPPTPTTAAATGAAVAAASAEQAAFRLVGHRNFVRVNPRSDRFHTLAFHHVELWCADAASAAGRFSFGLGAPLAARSDLSTGNTAHASLLLRSGALAFLFTAPYAHGADAATASLPSFSAAEARRFAADHGLAVRAVALRVADAEDAFRASVAAGARPAFEPVELGLGFRLAEVELYGDVVLRYVSYPDDADASFLPGFVGVTSPGAADYGLRRFDHIVGNVPELAPAAAYFAGFTGFHEFAEFTAEDVGTTESGLNSMVLANNAENVLLPLNEPVHGTKRRSQIQTYLDHHGGPGVQHMALASDDVLRTLREMQARSAMGGFEFMAPPAPEYYDGVRRRAGDVLTEAQIKECQELGVLVDRDDQGVLLQIFTKPVGDRPTLFLEIIQRIGCMEKDEKGQEYQKGGCGGFGKGNFSQLFKSIEDYEKSLEAKQAAAAQGS | 0 | 0 | 0 | 16 | 0 | 0 | 0 | 16 | 100 | 100 | non-resistant (non-resistant plants (scores 68-100)) | non-resistant (non-resistant plants (scores 68-100))
2 | SbHPPDm-F372A-02: Sorghum bicolor HPPD mutant F372A, SEQ ID NO: 66 (protein, SbHPPDm-F372A Amino Acid Sequence) MPPTPTTAAATGAAVAAASAEQAAFRLVGHRNFVRVNPRSDRFHTLAFHHVELWCADAASAAGRFSFGLGAPLAARSDLSTGNTAHASLLLRSGALAFLFTAPYAHGADAATASLPSFSAAEARRFAADHGLAVRAVALRVADAEDAFRASVAAGARPAFEPVELGLGFRLAEVELYGDVVLRYVSYPDDADASFLPGFVGVTSPGAADYGLRRFDHIVGNVPELAPAAAYFAGFTGFHEFAEFTAEDVGTTESGLNSMVLANNAENVLLPLNEPVHGTKRRSQIQTYLDHHGGPGVQHMALASDDVLRTLREMQARSAMGGFEFMAPPAPEYYDGVRRRAGDVLTEAQIKECQELGVLVDRDDQGVLLQIATKPVGDRPTLFLEIIQRIGCMEKDEKGQEYQKGGCGGFGKGNFSQLFKSIEDYEKSLEAKQAAAAQGS | 16 | 0 | 0 | 0 | 4 | 4 | 8 | 0 | 0 | 42 | highly resistant_ (highly resistant plants (scores 0-15)) | poorly resistant (poorly resistant plants (scores 34-67))
3 | AtHPPD: native Arabidopsis thaliana HPPD, SEQ ID NO: 23 (protein, listed as Arabidopsis thaliana, Arabidopsis thaliana HPPD Amido Acid Sequence) MGHQNAAVSENQNHDDGAASSPGFKLVGFSKFVRKNPKSDKFKVKRFHHIEFWCGDATNVARRFSWGLGMRFSAKSDLSTGNMVHASYLLTSGDLRFLFTAPYSPSLSAGEIKPTTTASIPSFDHGSCRSFFSSHGLGVRAVAIEVEDAESAFSISVANGAIPSSPPIVLNEAVTIAEVKLYGDVVLRYVSYKAEDTEKSEFLPGFERVEDASSFPLDYGIRRLDHAVGNVPELGPALTYVAGFTGFHQFAEFTADDVGTAESGLNSAVLASNDEMVLLPINEPVHGTKRKSQIQTYLEHNEGAGLQHLALMSEDIFRTLREMRKRSSIGGFDFMPSPPPTYYQNLKKRVGDVLSDDQIKECEELGILVDRDDQGTLLQIFTKPLGDRPTIFIEIIQRVGCMMKDEEGKAYQSGGCGGFGKGNFSELFKSIEEYEKTLEAKQLVG | 0 | 0 | 0 | 16 | 0 | 0 | 0 | 16 | 100 | 100 | non-resistant (non-resistant plants (scores 68-100)) | non-resistant (non-resistant plants (scores 68-100))
4 | AtHPPDm-F372A: Arabidopsis thaliana HPPD mutant F372A, SEQ ID NO: 25 (protein, AtHPPDm-F372A Amino Acid Sequence) MGHQNAAVSENQNHDDGAASSPGFKLVGFSKFVRKNPKSDKFKVKRFHHIEFWCGDATNVARRFSWGLGMRFSAKSDLSTGNMVHASYLLTSGDLRFLFTAPYSPSLSAGEIKPTTTASIPSFDHGSCRSFFSSHGLGVRAVAIEVEDAESAFSISVANGAIPSSPPIVLNEAVTIAEVKLYGDVVLRYVSYKAEDTEKSEFLPGFERVEDASSFPLDYGIRRLDHAVGNVPELGPALTYVAGFTGFHQFAEFTADDVGTAESGLNSAVLASNDEMVLLPINEPVHGTKRKSQIQTYLEHNEGAGLQHLALMSEDIFRTLREMRKRSSIGGFDFMPSPPPTYYQNLKKRVGDVLSDDQIKECEELGILVDRDDQGTLLQIATKPLGDRPTIFIEIIQRVGCMMKDEEGKAYQSGGCGGFGKGNFSELFKSIEEYEKTLEAKQLVG | 4 | 4 | 8 | 0 | 0 | 0 | 4 | 12 | 42 | 92 | poorly resistant (poorly resistant plants (scores 34-67)) | non-resistant (non-resistant plants (scores 68-100))
5 | OsHPPD-02: native Oryza sativa HPPD, SEQ ID NO: 69 (protein, listed as Oryza sativa, OsHPPD Amino Acid Sequence) MPPTPTPTATTGAVSAAAAAGENAGFRLVGHRRFVRANPRSDRFQALAFHHVELWCADAASAAGRFAFALGAPLAARSDLSTGNSAHASLLLRSASVAFLFTAPYGGDHGVGADAATTASIPSFSPGAARRFAADHGLAVHAVALRVADAADAFRASVAAGARPAFQPADLGGGFGLAEVELYGDVVLRFVSHPDGADAPFLPGFEGVSNPGAVDYGLRRFDHVVGNVPELAPVAAYISGFTGFHEFAEFTAEDVGTAESGLNSVVLANNAETVLLPLNEPVHGTKRRSQIQTYLDHHGGPGVQHIALASDDVLGTLREMRARSAMGGFEFLAPPPPNYYDGVRRRAGDVLSEEQINECQELGVLVDRDDQGVLLQIFTKPVGDRPTFFLEMIQRIGCMEKDESGQEYQKGGCGGFGKGNFSELFKSIEEYEKSLEAKQAPTVQGS | 0 | 0 | 0 | 16 | 0 | 0 | 0 | 16 | 100 | 100 | non-resistant (non-resistant plants (scores 68-100)) | non-resistant (non-resistant plants (scores 68-100))
6 | OsHPPDm-F372A-02: Oryza sativa HPPD mutant F372A, SEQ ID NO: 72 (protein, OsHPPDm-F372A Amino Acid Sequence) MPPTPTPTATTGAVSAAAAAGENAGFRLVGHRRFVRANPRSDRFQALAFHHVELWCADAASAAGRFAFALGAPLAARSDLSTGNSAHASLLLRSASVAFLFTAPYGGDHGVGADAATTASIPSFSPGAARRFAADHGLAVHAVALRVADAADAFRASVAAGARPAFQPADLGGGFGLAEVELYGDVVLRFVSHPDGADAPFLPGFEGVSNPGAVDYGLRRFDHVVGNVPELAPVAAYISGFTGFHEFAEFTAEDVGTAESGLNSVVLANNAETVLLPLNEPVHGTKRRSQIQTYLDHHGGPGVQHIALASDDVLGTLREMRARSAMGGFEFLAPPPPNYYDGVRRRAGDVLSEEQINECQELGVLVDRDDQGVLLQIATKPVGDRPTFFLEMIQRIGCMEKDESGQEYQKGGCGGFGKGNFSELFKSIEEYEKSLEAKQAPTVQGS | 8 | 8 | 0 | 0 | 0 | 0 | 0 | 16 | 17 | 100 | moderately resistant (moderately resistant plants (scores 16-33)) | non-resistant (non-resistant plants (scores 68-100))
